# Data reported in patent US11913033B2, “Luciferases and methods for using same” (LIGHT BIO, INC., priority 2017, dated 2024).
# B1: SEQ ID No:51 with the replacement of valine with isoleucine at position 146: Panellus stipticus luciferase variant with valine replaced by isoleucine at position 146 (protein, listed as Panellus stipticus)
# chain: MNINLKALIGVCAVLITAAVFPFVRKDYHTFLEGGPSYAPQNLQGYIIVLVLSLFRGEETGLEIYDRLPEKRRWLEELPVREGPRPKTTSHIIQRQLNQHVDPDFGMNSLKGSVIRRLQSRHQDITQLALSKFEFHAEAIFLRPDIAINDPKHVPSHDTVRRTKREIAHMHDYHDYTCHLALAAQDGKQVIAKGWGQRHPLAGPGMPGPPTEWTFLYAPRNEAEVQVLETIIEASIGYMSNAPALGGSE
# B2: luciferase from Neonothopanus nambi: fungal luciferase from Neonothopanus nambi oxidizing 3-hydroxyhispidin with emission of light (protein, listed as Neonothopanus nambi)
# chain: MRINISLSSLFERLSKLSSRSIAITCGVVLASAIAFPIIRRDYQTFLEVGPSYAPQNFRGYIIVCVLSLFRQEQKGLAIYDRLPEKRRWLADLPFREGTRPSITSHIIQRQRTQLVDQEFATRELIDKVIPRVQARHTDKTFLSTSKFEFHAKAIFLLPSIPINDPLNIPSHDTVRRTKREIAHMHDYHDCTLHLALAAQDGKEVLKKGWGQRHPLAGPGVPGPPTEWTFLYAPRNEEEARVVEMIVEASIGYMTNDPAGKIVENAK
# B3: functional fragment of luciferase from Omphalotus olearius: recombinant Omphalotus olearius luciferase with N-terminal transmembrane domain removed, expressed in E. coli (protein)
# chain: FIRKDYQTFLEVGPSYAPQNLQGYIIVCVLSLFRQEQKDVAIYDRLPEKRRWLGDLPFREGPRPSITSHIIQRQRTQLADAEFATKELIGKIIPRVQARHTNTTFLSTSKFEFHAQAIFLLPSIPINDPQNIPSHDTVRRTKREIAHMHDYHDCTLHLALAAQDGKEVLEKGWGQRHPLAGPGVPGPPTEWTFLYAPRSEEEVRVVEMIVEASVVYMTNDPADKIVEATVQGTEE
# modifications: Amino acid sequence of the functional fragment of luciferase from Omphalotus olearius
# notes: recombinant Omphalotus olearius luciferase with N-terminal transmembrane domain removed, expressed in E. coli
# B4: functional fragment of luciferase from Neonothopanus nambi: recombinant Neonothopanus nambi luciferase with N-terminal transmembrane domain removed, expressed in E. coli (protein)
# chain: IIRRDYQTFLEVGPSYAPQNFRGYIIVCVLSLFRQEQKGLAIYDRLPEKRRWLADLPFREGTRPSITSHIIQRQRTQLVDQEFATRELIDKVIPRVQARHTDKTFLSTSKFEFHAKAIFLLPSIPINDPLNIPSHDTVRRTKREIAHMHDYHDCTLHLALAAQDGKEVLKKGWGQRHPLAGPGVPGPPTEWTFLYAPRNEEEARVVEMIVEASIGYMTNDPAGKIVENAK
# modifications: Amino acid sequence of the functional fragment of luciferase from Neonothopanus nambi
# notes: recombinant Neonothopanus nambi luciferase with N-terminal transmembrane domain removed, expressed in E. coli
# Columns and labels:
# fungal luciferases = assay: Bioluminescence spectra of lysed transfected HEK293N cells with 3-hydroxyhispidin or analogs; assay type: biochemical; details: luciferin 660 μg/ml, pH 8.0, cell lysate
# Protocol: Plasmids comprising coding sequences of fungal luciferases necessary for expression in mammalian cells were obtained as described in Example 3 and used for the transfection of HEK293N cells. 24 hours after the transfection procedure, the cells were detached from dishes using trypsin-Versen solution (0.025% trypsin), the medium was substituted with a phosphate saline buffer, pH 8.0, by centrifugation, the cells were resuspended and lysed using ultrasound; 3-hydroxyhispidin or one of analogs thereof ((E)-6-(4-diethylamino)styryl)-3,4-dihydroxy-2H-pyran-2-one, (E)-3,4-dihydroxy-6-(4-hydroxystyryl)-2H-pyran-2-one, E)-6-(2-1H-indol-3-yl)vinyl)-3,4-dihydroxy-2H-pyran-2-one, (E)-6-(2-(1,2,3,5,6,7-hexahydropyrido[3,2,1-ij]quinoline-9-yl)vinyl)-3,4-dihydroxy-2H-pyran-2-one and (E)-3,4-dihydroxy-6-(2-(6-hydroxynaphthalene-2-yl)vinyl)-2H-pyran-2-one) at a concentration of 660 μg/ml was added to the medium.
# Varian Cary Eclipse spectrofluorimeter was used to detect bioluminescence spectra. All the samples emitted light with all examined luciferins.
# [1] = test system: CT26 cells (Mus musculus carcinoma cells); assay: Labelling of implanted tumour cells in a living mouse, IVIS imaging; assay type: in vivo; details: subcutaneous CT26 cells; luciferin mixture 0.5 mg each intraperitoneally
# Protocol: Vector containing the coding sequence of luciferase from Neonothopanus nambi under the control of a cytomegaloviral promoter was obtained as described in Example 3. In addition, a humanized nucleotide sequence encoding luciferase from Photinus pyralis firefly was synthesized and cloned into the same vector.
# The obtained constructs were used to transfect CT26 cells (Mus musculus carcinoma cells). The cells expressing luciferase from Neonothopanus nambi were injected subcutaneously into the left half of a mouse's back, while cells expressing luciferase of Photinus pyralis were injected in the same manner into the right half of a mouse's back. 10 minutes after injection, a mixture of fungal luciferin (0.5 mg) and Photinus pyralis firefly luciferin (0.5 mg) was injected intraperitoneally. Bioluminescence of the mouse was then visualized using IVIS Spectrum CT (PerkinElmer).
# HEK293NT and HeLa cells = assay: Luminescence of mammalian cells transfected with humanized luciferases after adding 3-hydroxyhispidin; assay type: cell-based; details: 3-hydroxyhispidin 660 μg/ml, 24 hours after transfection
# Description: Coding sequences of luciferases obtained as shown in examples 1 and 2 were optimized (humanized) for expression in mammalian cells. Humanized nucleic acids were obtained by oligonucleotide synthesis using standard techniques. The nucleotide profile of humanized nucleic acids is shown in SEQ ID NOs: 44-51, the amino acid profile of the corresponding proteins is identical to wild-type proteins shown in SEQ ID NOs: 2, 4, 6, 8, 10, 12, 14, 16. The obtained nucleic acids were cloned into pmKate2-keratin vector (Evrogen, Russia) using NheI and NotI restriction sites instead of a sequence encoding mKate2-keratin fusion protein. Plasmid DNA was purified and transfected into HEK293NT and HeLa cells using FuGENE HD Transfection Reagent (Promega, USA) according to the manufacturer's protocol. 24 hours after the transfection procedure, 3-hydroxyhispidin at a concentration of 660 μg/ml was added to the medium, and cell luminescence was detected using IVIS Spectrum CT (PerkinElmer). Intensity of light emission of all samples was by an order of magnitude and greater than the signal coming from the non-transfected control cells (FIG. 2). […]
# [2] = Bioluminescence spectrum of luciferase expressed in Pichia pastoris, supernatant plus 3-hydroxyhispidin; assay type: biochemical; details: 3-hydroxyhispidin (25 μM) in 1% DDM
# Protocol: In order to analyse the bioluminescence of expressed luciferase, Pichia pastoris colonies in which luminescence was observed were isolated and grown in 750 ml flasks filled with 250 ml of YPD medium for 72 hours at 30° C. and stirred at 200 rpm. Luciferase-expressing cells were then pelleted by centrifugation at 5000 g for 15 minutes at 4° C. The obtained pellet was resuspended in a 0.1 M phosphate buffer, pH 7.4, comprising 0.1% DDM for two hours at 4° C. The suspension was centrifuged at 21000 g for 30 min at 4° C. The bioluminescence reaction was activated by adding 750 μl of the obtained supernatant to 250 μl of the solution of 3-hydroxyhispidin (25 μM) in 1% DDM. Varian Cary Eclipse spectrofluorimeter was used to detect bioluminescence.
# cells of HEK293NT line = assay: Cell labelling: luciferase co-transfected into HEK293NT cells, microscopy; assay type: cell-based, human
# Protocol: Vector containing luciferase from Neonothopanus nambi under the control of a cytomegaloviral promoter obtained as described in Example 3 was co-transfected with pTurboFP635-N vector (Evrogen, Russia) encoding the red fluorescent protein, into the cells of HEK293NT line. Transfection was performed using FuGENE HD transfection reagent (Promega) according to the protocol recommended by the manufacturer. 24 hours after the transfection procedure, 3-hydroxyhispidin was added to the medium up to a final concentration of 660 μg/ml; and cell luminescence was analysed using Leica DM6000 microscope with a 20× objective. The cells were visualized in transmitted light, in the green and red channels for detecting fluorescence (FIG. 6).
# [3] = Bioluminescence of isolated recombinant luciferase fragments from E. coli with 3-hydroxyhispidin; assay type: biochemical; details: 3-hydroxyhispidin added
# Protocol: Sequence SEQ ID No: 52 was operably linked to the 5′ end of the nucleic acids encoding functional fragments of luciferases (SEQ ID NOs: 19, 21, 23, 25, 27, 29, 31, 33); the obtained constructs were cloned into pET-23 vector using BamHI and HindIII restriction endonucleases. The vector was used to transform Escherichia coli cells of BL21-CodonPlus strain (the derivative of Stratagene BL21-Gold high-yield strain) The cells were plated on Petri dishes containing LB medium comprising 1.5% agar, 100 μg/ml of ampicillin and 100 μg/ml of chloramphenicol, and incubated overnight at 37° C. Escherichia coli colonies were then transferred to 4 ml of liquid LB medium supplemented with ampicillin and chloramphenicol and incubated overnight at 37° C., with rocking. 1 ml of the overnight culture was transferred to 100 ml of Overnight Express Autoinduction medium (Novagen) containing preliminary added ampicillin and chloramphenicol. The culture was grown at 37° C. for 2.5 hours until it reached an optical density of 0.6 OE at 600 nm, and then it was grown at room temperature for 16 hours. The cells were then pelleted by centrifugation at 4500 rpm for 20 minutes in Eppendorf 5810R centrifuge, resuspended in 35 ml of buffer (50 mM Tris HCl, pH 8.0, 150 mM NaCl) and sonicated. […]
molecule,measurement,setting,value
"O=c1oc(/C=C/c2ccc3cc(O)ccc3c2)cc(O)c1O [(E)-3,4-dihydroxy-6-(2-(6-hydroxynaphthalene-2-yl)vinyl)-2H-pyran-2-one]",luminescence optimum displacement,fungal luciferases,shift to the long-wavelength region
same,wavelength of significantly emitted photons,fungal luciferases,more than 580 nm
"O=c1oc(/C=C/c2c[nH]c3ccccc23)cc(O)c1O [(E)-6-(2-1H-indol-3-yl)vinyl)-3,4-dihydroxy-2H-pyran-2-one]",luminescence optimum displacement,fungal luciferases,shift to the short-wavelength region
"luciferase from Photinus pyralis: firefly luciferase from Photinus pyralis, humanized sequence, comparison in mouse tumour labelling [reference compound]",intensity of light emission of tumour,[1],21000000 cu
B1,oxidation of 3-hydroxyhispidin in a bioluminescent reaction,HEK293NT and HeLa cells,capable of the oxidation of 3-hydroxyhispidin
B2,bioluminescence spectrum compared with Neonothopanus nambi mycelium bioluminescence,[2],substantially identical
same,light signal of expressing cells,"cells of HEK293NT line; 3-hydroxyhispidin 660 μg/ml, 24 hours after transfection",distinct light signal in the green region of the spectrum
same,toxicity of luciferase expression to the cells,cells of HEK293NT line; HEK293NT cells,No signs of toxicity
same,intensity of light emission of tumour,[1],20000000 cu
B3,"intensity of emitted light, rank among recombinant functional fragments",[3],lowest intensity
B4,"intensity of emitted light, rank among recombinant functional fragments",[3],highest intensity
